Values of other authors in article PMC10839879.

Target: RNH1 (Homo sapiens) (UniProt P13489)
UniProt P13489, sequence (P13489 2-461): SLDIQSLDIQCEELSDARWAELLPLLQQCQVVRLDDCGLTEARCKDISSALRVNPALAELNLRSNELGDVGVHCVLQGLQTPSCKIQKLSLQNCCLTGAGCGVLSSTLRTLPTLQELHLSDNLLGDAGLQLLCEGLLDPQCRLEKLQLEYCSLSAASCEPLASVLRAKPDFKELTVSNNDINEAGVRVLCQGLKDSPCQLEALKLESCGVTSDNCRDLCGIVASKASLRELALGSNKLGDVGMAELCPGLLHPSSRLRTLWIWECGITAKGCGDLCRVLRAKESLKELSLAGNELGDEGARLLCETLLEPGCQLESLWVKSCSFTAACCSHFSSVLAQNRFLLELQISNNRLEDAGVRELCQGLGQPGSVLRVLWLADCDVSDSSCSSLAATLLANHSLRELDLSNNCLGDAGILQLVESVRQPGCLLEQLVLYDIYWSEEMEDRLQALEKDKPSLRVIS

For angiogenin (from UniProt P03950), the Kd is given as 0.001 pM.
